Assay results as given in patent publication US20240124563A1.
Values belong to the substance of their own block, whether it stands above or below them.

Assays:
[1] = target: monkey MSLN full-length protein on HEK293T cells (monkey); experiment: FACS, HEK293T-monkey MSLN cells
[2] = target: human MSLN-R1-his protein (human) (UniProt Q13421); experiment: ELISA, coated antigen, 100 nM antibody
[3] = target: monkey MSLN full-length protein on HEK293T cells (monkey); experiment: FACS, HEK293T-monkey-MSLN cells, antibody 4 nM
[4] = target: monkey MSLN full-length protein on HEK293T cells (monkey); experiment: FACS, HEK293T-monkey-MSLN cells, antibody 20 nM
[5] = target: monkey MSLN full-length protein on HEK293T cells (monkey); experiment: FACS, HEK293T-monkey-MSLN cells, antibody 0.8 nM
[6] = target: monkey MSLN full-length protein on HEK293T cells (monkey); experiment: FACS, HEK293T-monkey-MSLN cells, antibody 100 nM
[7] = target: monkey MSLN full-length protein on HEK293T cells (monkey); experiment: FACS, HEK293T-monkey-MSLN cells, antibody 0.16 nM
[8] = target: monkey MSLN full-length protein on HEK293T cells (monkey); experiment: FACS, HEK293T-monkey-MSLN cells, antibody 0.032 nM
[9] = target: monkey MSLN full-length protein on HEK293T cells (monkey); experiment: FACS, HEK293T-monkey-MSLN cells, antibody 0.0064 nM
[10] = target: monkey MSLN full-length protein on HEK293T cells (monkey); experiment: FACS, HEK293T-monkey-MSLN cells, antibody 0.00128 nM
[11] = target: human MSLN-R3-rFc protein (human) (UniProt Q13421); experiment: ELISA, antibody 4 nM
[12] = target: human MSLN-R3-rFc protein (human) (UniProt Q13421); experiment: ELISA, antibody 1 nM
[13] = target: human MSLN-R3-rFc protein (human) (UniProt Q13421); experiment: ELISA, antibody 20 nM
[14] = target: human MSLN-R3-rFc protein (human) (UniProt Q13421); experiment: ELISA, antibody 100 nM
[15] = target: human MSLN-R3-rFc protein (human) (UniProt Q13421); experiment: ELISA, antibody 0.0064 nM
[16] = target: human MSLN-FL-his protein (human) (UniProt Q13421); experiment: ELISA, coated antigen, 20 nM antibody
[17] = target: human MSLN-R2-his protein (human) (UniProt Q13421); experiment: ELISA, coated antigen, 100 nM antibody
[18] = target: human MSLN-FL-his protein (human) (UniProt Q13421); experiment: ELISA, coated antigen, 0.2 nM antibody

Chain of human MSLN-R1-his protein (human) (Q13421 other isoform, or with tags, fused parts or gaps): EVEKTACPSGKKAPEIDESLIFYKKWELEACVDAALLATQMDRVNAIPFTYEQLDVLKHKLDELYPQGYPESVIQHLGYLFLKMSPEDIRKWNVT
Chain of human MSLN-FL-his protein (human) (Q13421 other isoform, or with tags, fused parts or gaps): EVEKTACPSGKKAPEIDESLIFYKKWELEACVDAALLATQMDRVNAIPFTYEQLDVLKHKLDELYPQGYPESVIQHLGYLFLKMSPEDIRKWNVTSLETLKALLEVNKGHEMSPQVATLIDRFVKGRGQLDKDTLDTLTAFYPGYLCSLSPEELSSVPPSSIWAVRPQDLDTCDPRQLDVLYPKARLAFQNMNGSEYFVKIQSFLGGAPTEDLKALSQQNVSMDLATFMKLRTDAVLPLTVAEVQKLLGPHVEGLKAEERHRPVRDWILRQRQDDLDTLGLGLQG
Chain of human MSLN-R2-his protein (human) (Q13421 other isoform, or with tags, fused parts or gaps): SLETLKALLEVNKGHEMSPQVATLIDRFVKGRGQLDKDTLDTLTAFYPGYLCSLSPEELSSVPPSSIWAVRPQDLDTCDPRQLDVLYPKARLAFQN

EC50 [1]: 0.83 nM | Max MFI [1]: 4240 | OD450 nm [2]: 0.12 OD450 nm
Substance: Tab108 (YP218, scFv-hIgG1 Fc) (Fc fusion)

FACS signal (MFI) [3]: 86 | FACS signal (MFI) [4]: 85 | FACS signal (MFI) [5]: 87 | FACS signal (MFI) [6]: 87 | FACS signal (MFI) [7]: 83 | FACS signal (MFI) [8]: 106 | FACS signal (MFI) [9]: 85 | FACS signal (MFI) [10]: 93
Substance: Tab131 (m912, scFv-hIgG1 Fc) (Fc fusion)

OD450 nm [11]: 0.23 | OD450 nm [12]: 0.11 | OD450 nm [13]: 0.86 | OD450 nm [14]: 1.11 | OD450 nm [15]: 0.16
Substance: anti-human MSLN antibody (purchased from Acro, Cat. No. MSN-M30)

OD450 nm [16]: 0.28 OD450 nm | OD450 nm [2]: 0.2 OD450 nm | OD450 nm [17]: 0.16 OD450 nm | OD450 nm [18]: 0.24 OD450 nm
Substance: hIgG1 (IgG control) (antibody)
